Data published in patent publication US20220177587A1, “METHODS AND USES OF VARIANT CD80 FUSION PROTEINS AND RELATED CONSTRUCTS” (Alpine Immune Sciences, Inc., priority 2018, published 2022).
Changes are numbered by the printed parent chain. Names and notes keep the numbering of the source.

B1: D46V/M47I/A71G (protein)
chain: VIHVTKEVKEVATLSCGHNVSVEELAQTRIYWQKEKKMVLTMMSGVINIWPEYKNRTIFDITNNLSIVILGLRPSDEGTYECVVLKYEKDAFKREHLAEVTLSVKAD
B2: V22A/E35D/M47L/A71G (protein)
chain: B1 chain with V22A, E35D, V46D, I47L
B3: M47I/A71G (protein)
chain: B1 chain with V46D
B4: E35D/M47L/A71G/L85M (protein)
chain: B1 chain with E35D, V46D, I47L, L85M
B5: M43I/M47L/A71G (protein)
chain: B1 chain with M43I, V46D, I47L
B6: E35D/M47I/N48K/I61F (protein)
chain: B1 chain with E35D, V46D, N48K, I61F, G71A
B7: E35D/M43I/D46E/A71G/L85M (protein)
chain: B1 chain with E35D, M43I, V46E, I47M, L85M
B8: H18Y/E35D/M47L/A71G/A91S (protein)
chain: B1 chain with H18Y, E35D, V46D, I47L, A91S
B9: E35D/M47V (protein)
chain: B1 chain with E35D, V46D, I47V, G71A
B10: E35D/V68M/A71G/D90G (protein)
chain: B1 chain with E35D, V46D, I47M, V68M, D90G
B11: A26P/E35D/M47I/V68M/A71G/D90G (protein, UniProt P33681 35-288, looked up, variant A26P E35D M47I V68M A71G D90G)
T-lymphocyte activation …: VIHVTKEVKEVATLSCGHNVSVEELPQTRIYWQKDKKMVLTMMSGDINIWPEYKNRTIFDITNNLSIMILGLRPSDEGTYECVVLKYEKGAFKREHLAEVTLSVKADFPTPSISDFEIPTSNIRRIICSTSGGFPEPHLSWLENGEELNAINTTVSQDPETELYAVSSKLDFNMTTNHSFMCLIKYGHLRVNQTFNWNTTKQEHFPDNLLPSWAITLISVNGIFVICCLTYCFAPRCRERRRNERLRRESVRPV
B12: H18F/A26P/E35D/M47I/V68M/A71G/D90G (protein, UniProt P33681 35-288, looked up, variant H18F A26P E35D M47I V68M A71G D90G)
T-lymphocyte activation …: B11 T-lymphocyte activation … with H18F

Target: T1, CD28 (Homo sapiens, UniProt P10747)
Assay: Flow binding to Jurkat/IL2 reporter cells (CD28)
Parameters: host or cells: Jurkat cells expressing an IL-2-luciferase reporter
Settings: Table E10; 33.3 nM; Jurkats (CD28)
Summary of the method: (§1)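 Fusion proteins bound to CHO cells stably expressing CTLA4 or PD-L1, or to Jurkat/IL2 reporter cells with endogenous CD28, for 45 min on ice after blocking in PBS/1% BSA. Detection with PE anti-human Fc by flow cytometry; PE MFI per cell type and binding EC50 determined.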

Row | Molecule | CD28 MFI at 33.3 nM
1 | B1 | 1325
2 | B2 | 990
3 | B3 | 823
4 | B4 | 199
5 | B5 | 1000
6 | B6 | 816
7 | B7 | 200
8 | B8 | 528
9 | B9 | 461

Same assay, conditions: Table E10; 33.3 nM; relative to CD80 WT IgV-Fc

Row | Molecule | CD28 Fold change to WT CD80
10 | B1 | 20.1
11 | B2 | 15.0
12 | B3 | 12.5
13 | B4 | 3.0
14 | B5 | 15.2
15 | B6 | 12.4
16 | B7 | 3.0
17 | B8 | 8.0
18 | B9 | 7.0

Same assay, conditions: Table E19; Jurkats (CD28); 33.3 nM

Row | Molecule | CD28 MFI at 33.3 nM
19 | B9 | 501

Same assay, conditions: Table E19; MFI at 33.3 nM relative to WT CD80 ECD-Fc (Abcam)

Row | Molecule | CD28 Fold change to WT CD80
20 | B9 | 0.7 fold

Same assay, conditions: Table E20; Jurkats (CD28); 33.3 nM

Row | Molecule | CD28 MFI at 33.3 nM
21 | B10 | 2843

Same assay, conditions: Table E23; CD80 IgV-Fc (inert) at 33.3 nM; Jurkat (CD28)

Row | Molecule | CD28 MFI at 33.3 nM
22 | B11 | 8189
23 | B12 | 4801

Target: T1, CD28
Assay: Jurkat/IL2 + CHO/OKT3 +/- PD-L1 reporter assay: PD-L1-dependent CD28 costimulation
Type: cell-based
Parameters: host or cells: Jurkat cells expressing an IL-2-luciferase reporter
Settings: Table E12; Jurkat/IL2 + CHO/OKT3/PD-L1; 5.0 nM
Summary of the method: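 Jurkat reporter cells (100,000/well) preincubated 15 min at room temperature with test protein, then cocultured 5 h at 37 °C with CHO aAPCs bearing anti-CD3 scFv (OKT3) with or without PD-L1. Luciferase luminescence (RLU) read after lysis-substrate addition.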

Row | Molecule | Fold Increase over WT CD80-IgV-Fe | Relative Luciferase Units (RLU), CD80 Cone 5.0 nM
24 | B1 | 4.0 | 1601 RLU
25 | B2 | 6.5 | 2583 RLU
26 | B3 | 4.4 | 1762 RLU
27 | B4 | 3.8 | 1513 RLU
28 | B5 | 4.1 | 1641 RLU
29 | B6 | 5.2 | 2078 RLU
30 | B7 | 3.7 | 1475 RLU
31 | B8 | 4.7 | 1898 RLU
32 | B9 | 3.4 | 1353 RLU

Same assay, conditions: Table E21; Jurkat/IL2 + CHO/OKT3/PD-L1; 5.0 nM

Row | Molecule | Fold Increase over WT CD80-IgV-Fe
33 | B9 | 4.7 fold

Same assay, conditions: Table E21; Jurkat/IL2 + CHO/OKT3/PD-L1; CD80 Conc 5.0 nM

Row | Molecule | Relative Luciferase Units (RLU), CD80 Conc 5.0 nM
34 | B9 | 543 RLU

Same assay, conditions: Table E22; Jurkat/IL2 + CHO/OKT3/PD-L1; CD80 Conc 5.0 nM

Row | Molecule | Relative Luciferase Units (RLU), CD80 Conc 5.0 nM
35 | B10 | 990 RLU

Same assay, conditions: Table E24; Jurkat/IL2 + CHO/OKT3/PD-L1; 5.0 nM

Row | Molecule | Relative Luciferase Units (RLU), CD80 Conc 5.0 nM
36 | B11 | 823 RLU
37 | B12 | 926 RLU

Target: huCTLA4 (Homo sapiens, UniProt P16410)
Sequence (P16410 36-223): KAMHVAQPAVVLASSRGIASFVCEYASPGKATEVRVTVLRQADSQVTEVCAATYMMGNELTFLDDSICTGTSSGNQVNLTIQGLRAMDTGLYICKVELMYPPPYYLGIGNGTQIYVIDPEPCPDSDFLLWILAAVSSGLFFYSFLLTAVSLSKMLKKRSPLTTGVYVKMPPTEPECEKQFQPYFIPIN
Assay: Flow binding to CHO cells stably expressing CTLA4
Parameters: huCTLA4 and huPD-L1, full-length mammalian surface expression constructs were generated; expressed in transfected cells; host or cells: CHO cells, lentiviral transduction, sorted to >98% purity
Settings: Table E10; 33.3 nM; CHO cells stably expressing CTLA4
Summary of the method: as §1

Row | Molecule | CTLA4 MFI at 33.3 nM
38 | B1 | 28420
39 | B2 | 21855
40 | B3 | 27768
41 | B4 | 16609
42 | B5 | 23292
43 | B6 | 25859
44 | B7 | 26878
45 | B8 | 24218
46 | B9 | 20893

Same assay, conditions: Table E10; 33.3 nM; relative to CD80 WT IgV-Fc

Row | Molecule | CTLA4 Fold change to WT CD80
47 | B1 | 14.8
48 | B2 | 11.4
49 | B3 | 14.5
50 | B4 | 8.7
51 | B5 | 12.2
52 | B6 | 13.5
53 | B7 | 14.0
54 | B8 | 12.6
55 | B9 | 10.9

Same assay, conditions: Table E19; CHO cells stably expressing CTLA4; 33.3 nM

Row | Molecule | CTLA4 MFI at 33.3 nM
56 | B9 | 44569

Same assay, conditions: Table E19; MFI at 33.3 nM relative to WT CD80 ECD-Fc (Abcam)

Row | Molecule | CTLA4 Fold change to WT CD80
57 | B9 | 1.1 fold

Same assay, conditions: Table E20; CHO cells stably expressing CTLA4; 33.3 nM

Row | Molecule | CTLA4 MFI at 33.3 nM
58 | B10 | 23290

Same assay, conditions: Table E23; CD80 IgV-Fc (inert) at 33.3 nM; CHO cells stably expressing CTLA4

Row | Molecule | CTLA4 MFI at 33.3 nM
59 | B11 | 19761
60 | B12 | 23932

Target: huPD-L1 (Homo sapiens, UniProt Q9NZQ7)
Sequence (Q9NZQ7 19-290): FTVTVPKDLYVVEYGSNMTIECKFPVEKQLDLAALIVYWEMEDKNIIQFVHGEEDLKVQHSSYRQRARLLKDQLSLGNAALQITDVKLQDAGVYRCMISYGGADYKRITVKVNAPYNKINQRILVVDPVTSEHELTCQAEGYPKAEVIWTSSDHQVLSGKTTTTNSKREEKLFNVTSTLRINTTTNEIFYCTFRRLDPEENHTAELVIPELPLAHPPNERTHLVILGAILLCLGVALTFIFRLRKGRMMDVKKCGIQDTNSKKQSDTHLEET
Assay: Flow binding to CHO cells stably expressing PD-L1
Parameters: huCTLA4 and huPD-L1, full-length mammalian surface expression constructs were generated; expressed in transfected cells; host or cells: CHO cells, lentiviral transduction, sorted to >98% purity
Settings: Table E10; 33.3 nM; CHO cells stably expressing PD-L1
Summary of the method: as §1

Row | Molecule | PD-L1 MFI at 33.3 nM
61 | B1 | 7328
62 | B2 | 8168
63 | B3 | 5097
64 | B4 | 8312
65 | B5 | 7763
66 | B6 | 5627
67 | B7 | 7138
68 | B8 | 7582
69 | B9 | 2935

Same assay, conditions: Table E10; 33.3 nM; relative to CD80 WT IgV-Fc

Row | Molecule | PD-L1 Fold change to WT CD80
70 | B1 | 104.2
71 | B2 | 116.2
72 | B3 | 72.5
73 | B4 | 118.2
74 | B5 | 110.4
75 | B6 | 80.0
76 | B7 | 101.5
77 | B8 | 107.9
78 | B9 | 41.7

Same assay, conditions: Table E10; binding to PD-L1 compared to binding to CD28

Row | Molecule | Ratio of PDL1:CD28
79 | B1 | 6
80 | B2 | 8
81 | B3 | 6
82 | B4 | 42
83 | B5 | 8
84 | B6 | 7
85 | B7 | 36
86 | B8 | 14
87 | B9 | 6

Same assay, conditions: Table E19; CHO cells stably expressing PD-L1; 33.3 nM

Row | Molecule | PD-L1 MFI at 33.3 nM
88 | B9 | 6796

Same assay, conditions: Table E19; MFI at 33.3 nM relative to WT CD80 ECD-Fc (Abcam)

Row | Molecule | PD-L1 Fold change to WT CD80
89 | B9 | 53.1 fold

Same assay, conditions: Table E19; ratio of MFI at 33.3 nM

Row | Molecule | Ratio of PDL1:CD28
90 | B9 | 13.6
